T1: SCUBE3 (UniProt Q8IX30 21-993, limits assumed)
T1 construct: also called SCUBE3 protein
T1 sequence (looked up): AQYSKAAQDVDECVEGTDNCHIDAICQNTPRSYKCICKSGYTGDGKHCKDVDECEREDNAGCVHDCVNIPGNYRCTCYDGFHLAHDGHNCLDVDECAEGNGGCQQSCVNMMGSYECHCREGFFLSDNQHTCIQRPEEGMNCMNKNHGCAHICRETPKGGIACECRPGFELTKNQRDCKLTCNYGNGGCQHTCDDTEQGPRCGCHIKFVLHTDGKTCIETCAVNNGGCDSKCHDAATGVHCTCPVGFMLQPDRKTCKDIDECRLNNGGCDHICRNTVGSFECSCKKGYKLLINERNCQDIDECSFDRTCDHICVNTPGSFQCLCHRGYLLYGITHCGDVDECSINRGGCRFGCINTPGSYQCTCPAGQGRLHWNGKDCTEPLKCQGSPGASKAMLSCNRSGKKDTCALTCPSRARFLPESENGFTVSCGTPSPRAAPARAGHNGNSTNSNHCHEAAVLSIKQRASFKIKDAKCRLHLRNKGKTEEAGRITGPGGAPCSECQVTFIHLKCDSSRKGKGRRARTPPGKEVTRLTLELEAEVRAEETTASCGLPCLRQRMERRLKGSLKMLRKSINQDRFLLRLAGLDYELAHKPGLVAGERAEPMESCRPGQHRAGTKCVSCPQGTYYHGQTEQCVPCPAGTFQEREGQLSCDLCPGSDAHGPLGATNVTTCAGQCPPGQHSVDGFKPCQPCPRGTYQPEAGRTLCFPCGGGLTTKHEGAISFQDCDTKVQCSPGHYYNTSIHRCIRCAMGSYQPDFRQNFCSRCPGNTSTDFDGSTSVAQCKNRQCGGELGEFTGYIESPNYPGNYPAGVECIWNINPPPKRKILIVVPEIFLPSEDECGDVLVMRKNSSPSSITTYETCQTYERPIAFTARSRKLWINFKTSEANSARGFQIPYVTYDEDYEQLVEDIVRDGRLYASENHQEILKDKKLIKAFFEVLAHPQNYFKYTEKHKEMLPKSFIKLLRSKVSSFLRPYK

T2: SCUBE1 (UniProt Q8IWY4 24-988, limits assumed)
T2 construct: also called SCUBE1 protein
T2 sequence (looked up): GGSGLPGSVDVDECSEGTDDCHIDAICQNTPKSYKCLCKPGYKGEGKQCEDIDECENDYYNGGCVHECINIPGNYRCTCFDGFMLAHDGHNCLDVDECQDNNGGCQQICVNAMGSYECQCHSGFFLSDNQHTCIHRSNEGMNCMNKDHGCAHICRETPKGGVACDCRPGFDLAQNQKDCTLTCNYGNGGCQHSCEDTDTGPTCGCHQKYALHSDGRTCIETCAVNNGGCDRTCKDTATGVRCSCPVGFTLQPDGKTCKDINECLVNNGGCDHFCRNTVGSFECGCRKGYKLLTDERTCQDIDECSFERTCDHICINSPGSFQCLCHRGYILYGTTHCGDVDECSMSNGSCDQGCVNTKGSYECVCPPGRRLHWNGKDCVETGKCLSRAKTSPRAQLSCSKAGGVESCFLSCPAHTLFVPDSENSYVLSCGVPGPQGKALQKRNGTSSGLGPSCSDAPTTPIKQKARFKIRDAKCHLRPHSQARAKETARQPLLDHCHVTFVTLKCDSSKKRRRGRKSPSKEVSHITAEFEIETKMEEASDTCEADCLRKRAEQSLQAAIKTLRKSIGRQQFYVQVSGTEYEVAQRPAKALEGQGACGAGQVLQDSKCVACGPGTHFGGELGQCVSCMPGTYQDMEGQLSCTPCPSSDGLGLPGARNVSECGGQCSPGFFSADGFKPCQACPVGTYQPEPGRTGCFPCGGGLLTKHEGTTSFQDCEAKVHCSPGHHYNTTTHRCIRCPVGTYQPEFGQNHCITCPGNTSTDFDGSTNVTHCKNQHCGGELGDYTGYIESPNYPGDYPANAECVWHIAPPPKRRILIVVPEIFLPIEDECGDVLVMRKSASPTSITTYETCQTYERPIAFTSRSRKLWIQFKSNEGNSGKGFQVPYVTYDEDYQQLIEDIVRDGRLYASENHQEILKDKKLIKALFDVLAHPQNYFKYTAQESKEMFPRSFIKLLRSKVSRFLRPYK

B1: anti-SCUBE2 mAb clone EGF-C3 (antibody, IgG2a, V domains shown)
VH: EVKLVESGGGLVQPGGSRKLSCVASGFTISSFGMHWVRQAPERGLEWVAYISSGSNTIYYADTVKGRFTISRDNPKNTLFLQMTSLWSEDTAMYYCARSGTLDGWFTYWGRGTLVTVST
VL: DIVMTQPPLSLPVSLGDQASISCRSSQSILHSNGNTYLEWYLQKPGQSPKLLIYKLFNRFSGVPDRFNGSGSGTDFTLKISRAEAEDLGVYYCLQGSHVPPTFGAGTKLEIK
B2: recombinant VEGF165 protein (ligand, UniProt P15692-4 27-191, looked up)
chain: APMAEGGGQNHHEVVKFMDVYQRSYCHPIETLVDIFQEYPDEIEYIFKPSCVPLMRCGGCCNDEGLECVPTEESNITMQIMRIKPHQGQHIGEMSFLQHNKCECRPKKDRARQENPCGPCSERRKHLFVQDPQTCKCSCKNTDSRCKARQLELNERTCRCDKPRR
notes: Bought reagent; also called VEGF-A165
B3: anti-SCUBE2 mAb clone SP-B2 (antibody, IgG1, V domains shown)
VH: EVQRVESGGGLVKPGGSLKLSCAASGFTFRNYAMSWVRQTTEKKLEWVATINDVGSYTYFPASVKGRFTVSRDNTKNTLYLQMSSLRSEDTAMYYCVTSSDTVPHHHALDYWGQGSSVTVSS
VL: DIVMTQPPASLAVSLGQRATVFCRASQNVDSRGISFMHWYQQKPGQPPKLLIYAASNLESGIPARFRGSGSGTDFTLNIHPVEEEDVATYYCQQSVEDLTFGGGTKLELK
B4: anti-SCUBE2 mAb clone CR-#5 (antibody, IgG2b, V domains shown)
VH: EVQRVESGGDLVKPGGTLKLSCAASGFTFRNYGMSWVRQTPDKRLEWVATISSGGVYIYYPDSVKGRFTISRDNAKNTLFLQMSSLRSEDSAMYYCARDDYDGRGYFDYWGQGTTLTVSS
VL: DIVMSQSPSSLAVSAGEKVTMSCKSSQSLLNSRTRKNYLAWYQQKPGQSPKLLIYWASTRESGVPDRFTGSGSGTDFTLTISSVQAEDLAVYYCKQSYNLPTFGSGTKLDIK
B5: human SCUBE2 (Signal peptide-CUB-EGF domain-containing protein 2) (receptor)
chain: RAAGPQEDVDECAQGLDDCHADALCQNTPTSYKCSCKPGYQGEGRQCEDIDECGNELNGGCVHDCLNIPGNYRCTCFDGFMLAHDGHNCLDVDECLENNGGCQHTCVNVMGSYECCCKEGFFLSDNQHTCIHRSEEGLSCMNKDHGCSHICKEAPRGSVACECRPGFELAKNQRDCILTCNHGNGGCQHSCDDTADGPECSCHPQYKMHTDGRSCLEREDTVLEVTESNTTSVVDGDKRVKRRLLMETCAVNNGGCDRTCKDTSTGVHCSCPVGFTLQLDGKTCKDIDECQTRNGGCDHFCKNIVGSFDCGCKKGFKLLTDEKSCQDVDECSLDRTCDHSCINHPGTFACACNRGYTLYGFTHCGDTNECSINNGGCQQVCVNTVGSYECQCHPGYKLHWNKKDCVEVKGLLPTSVSPRVSLHCGKSGGGDGCFLRCHSGIHLSSGLQGAYSVTCGSSSPLRNKQQKSNDSAFGDVTTIRTSVTFKLNEGKCSLKNAELFPEGLRPALPEKHSSVKESFRYVNLTCSSGKQVPGAPGRPSTPKEMFITVEFELETNQKEVTASCDLSCIVKRTEKRLRKAIRTLRKAVHREQFHLQLSGMNLDVAKKPPRTSERQAESCGVGQGHAENQCVSCRAGTYYDGARERCILCPNGTFQNEEGQMTCEPCPRPGNSGALKTPEAWNMSECGGLCQPGEYSADGFAPCQLCALGTFQPEAGRTSCFPCGGGLATKHQGATSFQDCETRVQCSPGHFYNTTTHRCIRCPVGTYQPEFGKNNCVSCPGNTTTDFDGSTNITQCKNRRCGGELGDFTGYIESPNYPGNYPANTECTWTINPPPKRRILIVVPEIFLPIEDDCGDYLVMRKTSSSNSVTTYETCQTYERPIAFTSRSKKLWIQFKSNEGNSARGFQVPYVTYDEDYQELIEDIVRDGRLYASENHQEILKDKKLIKALFDVLAHPQNYFKYTAQESREMFPRSFIRLLRSKVSRFLRPYK
notes: Signal peptide a.a; 1-37 and mature protein a.a; also GST.SCUBE2-CUB); also called FLAG.SCUBE2-FL; FLAG-tagged SCUBE2
B6: anti-SCUBE2 mAb clone SP-A1 (antibody, IgG1, V domains shown)
VH: EVQLQQSGPELVKPGASVKVSCKASGYAFTSYNMYWVKQSHGKSLEWIGYIDPYNGDTNNNQKFKGKATLTVDKSSSTAYMHLNSLTSEDSAVYYCARSYRYLAWFAYWGQGTLVTVSA
VL: DIVMTQSPLSLPVSLGDQASISCRSSQSIVHSNGNTYLEWYLQKPGQSPKLLIYTVSNRFSGVPDRFSGSGSGTDFTLRISRVEAEDLGVYYCFQGSHIPYTFGGGTKLELK
notes: Mouse hybridoma mAb, IgG1
B7: anti-SCUBE2 mAb clone SP-B1 (antibody, IgG1, V domains shown)
VH: B6 VH
VL: B6 VL
notes: also called SP.B1 mAb

How the values were obtained:
[1] = target: B5; assay: domain mapping (FIG. 12A); method not described
SCUBE3 [2] = target: T1, SCUBE3; assay: co-immunoprecipitation
SCUBE1 [3] = target: T2, SCUBE1; assay: co-immunoprecipitation
VEGFR1 = VEGFR1 (UniProt P17948 27-1338, limits assumed); assay: co-immunoprecipitation with anti-SCUBE2 antibody
EGFR = EGFR (UniProt P00533 25-1210, limits assumed); assay: co-immunoprecipitation with anti-SCUBE2 antibody
SCUBE3 [4] = target: T1, SCUBE3; assay: western blot of recombinant SCUBE proteins expressed in HEK-293T cells (FIG. 13A)
SCUBE1 [5] = target: T2, SCUBE1; assay: as above

Sequence of VEGFR1 (P17948 27-1338 limits assumed): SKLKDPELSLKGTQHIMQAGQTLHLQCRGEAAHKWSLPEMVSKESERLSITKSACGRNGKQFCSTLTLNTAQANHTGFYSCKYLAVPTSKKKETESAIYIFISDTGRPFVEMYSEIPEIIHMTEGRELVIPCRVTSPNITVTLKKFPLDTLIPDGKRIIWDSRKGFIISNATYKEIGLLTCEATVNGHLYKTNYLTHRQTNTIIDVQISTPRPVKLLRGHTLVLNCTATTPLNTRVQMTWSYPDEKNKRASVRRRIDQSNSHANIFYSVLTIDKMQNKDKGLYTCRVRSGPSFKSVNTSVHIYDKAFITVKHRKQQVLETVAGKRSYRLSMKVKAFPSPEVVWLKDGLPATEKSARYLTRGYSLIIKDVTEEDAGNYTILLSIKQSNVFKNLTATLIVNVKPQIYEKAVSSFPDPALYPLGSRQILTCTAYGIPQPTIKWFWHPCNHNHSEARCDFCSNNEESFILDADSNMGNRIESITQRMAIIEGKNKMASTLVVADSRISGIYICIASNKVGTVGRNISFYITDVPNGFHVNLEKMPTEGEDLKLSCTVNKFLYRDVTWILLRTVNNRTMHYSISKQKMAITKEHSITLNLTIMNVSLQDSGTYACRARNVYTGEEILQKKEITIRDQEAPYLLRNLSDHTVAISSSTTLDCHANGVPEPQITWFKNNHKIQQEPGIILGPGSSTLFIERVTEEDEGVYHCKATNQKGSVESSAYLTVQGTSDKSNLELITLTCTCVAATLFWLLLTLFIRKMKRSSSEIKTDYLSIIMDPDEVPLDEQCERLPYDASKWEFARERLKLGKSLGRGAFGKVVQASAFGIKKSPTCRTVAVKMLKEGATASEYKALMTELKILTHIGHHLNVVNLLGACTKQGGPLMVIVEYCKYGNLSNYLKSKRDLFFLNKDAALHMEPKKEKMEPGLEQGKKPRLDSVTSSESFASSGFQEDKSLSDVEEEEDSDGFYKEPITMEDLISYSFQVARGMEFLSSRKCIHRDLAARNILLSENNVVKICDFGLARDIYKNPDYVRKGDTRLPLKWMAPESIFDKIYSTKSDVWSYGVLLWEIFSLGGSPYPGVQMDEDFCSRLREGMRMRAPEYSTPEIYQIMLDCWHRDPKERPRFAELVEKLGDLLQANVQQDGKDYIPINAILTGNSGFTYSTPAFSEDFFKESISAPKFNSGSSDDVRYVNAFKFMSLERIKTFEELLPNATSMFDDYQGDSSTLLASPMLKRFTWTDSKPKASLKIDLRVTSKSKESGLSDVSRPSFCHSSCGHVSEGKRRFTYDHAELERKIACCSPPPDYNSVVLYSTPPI

B1
binding result [1]: binds

B2
binding result (SCUBE3 [2]): no binding | binding result (SCUBE1 [3]): no binding

B3
binding result [1]: binds

B4
binding result [1]: binds

B5
binding result (VEGFR1): no binding | binding result (EGFR): no binding

B6
binding result [1]: binds

B7
binding result (SCUBE3 [4]): no binding | binding result (SCUBE1 [5]): no binding | binding result [1]: binds

From US20190127454A1 (ACADEMIA SINICA, published 2019)
